We go through 55 molecules from PMC12416549 (2024).

Substitutions are numbered along the chain they refer to. In names and notes the source's numbering stands.

To fix the notation:
B1: A90Q (designed binder)
chain: SMEEEVEKAAKEYEKKKKEAIEKHLEKLKAKDKEAAERFLKELEEAAKEYAKDEAKTMSEEEAKRRAKKYKEKVLLSELSEEEQKEIKEQEEKLVRTILKYVEEAAK
B2: E72P (designed binder)
chain: B1 chain with E72P, Q90A
B3: K71Q (designed binder)
chain: B1 chain with K71Q, Q90A
B4: A63P (designed binder)
chain: B1 chain with A63P, Q90A
B5: H24E (designed binder)
chain: B1 chain with H24E, Q90A
B6: A105T (designed binder)
chain: B1 chain with Q90A, A105T
B7: F39T (designed binder)
chain: B1 chain with F39T, Q90A
B8: K73Y (designed binder)
chain: B1 chain with K73Y, Q90A
B9: K56V (designed binder)
chain: B1 chain with K56V, Q90A
B10: S80A (designed binder)
chain: B1 chain with S80A, Q90A
B11: K71E (designed binder)
chain: B1 chain with K71E, Q90A
B12: K85G (designed binder)
chain: B1 chain with K85G, Q90A
B13: K29M (designed binder)
chain: B1 chain with K29M, Q90A
B14: A20G (designed binder)
chain: B1 chain with A20G, Q90A
B15: K41R (designed binder)
chain: B1 chain with K41R, Q90A
B16: A106F (designed binder)
chain: B1 chain with Q90A, A106F
B17: K16A (designed binder)
chain: B1 chain with K16A, Q90A
B18: E4L (designed binder)
chain: B1 chain with E4L, Q90A
B19: K56M (designed binder)
chain: B1 chain with K56M, Q90A
B20: E7R (designed binder)
chain: B1 chain with E7R, Q90A
B21: K15P (designed binder)
chain: B1 chain with K15P, Q90A
B22: K41C (designed binder)
chain: B1 chain with K41C, Q90A
B23: R38A (designed binder)
chain: B1 chain with R38A, Q90A
B24: S59Y (designed binder)
chain: B1 chain with S59Y, Q90A
B25: K73A (designed binder)
chain: B1 chain with K73A, Q90A
B26: A90R (designed binder)
chain: B1 chain with Q90R
B27: L75T (designed binder)
chain: B1 chain with L75T, Q90A
B28: E26F (designed binder)
chain: B1 chain with E26F, Q90A
B29: E44I (designed binder)
chain: B1 chain with E44I, Q90A
B30: A67H (designed binder)
chain: B1 chain with A67H, Q90A
B31: Q84R (designed binder)
chain: B1 chain with Q84R, Q90A
B32: A47V (designed binder)
chain: B1 chain with A47V, Q90A
B33: D32A (designed binder)
chain: B1 chain with D32A, Q90A
B34: Y70H (designed binder)
chain: B1 chain with Y70H, Q90A
B35: V95E (designed binder)
chain: B1 chain with Q90A, V95E
B36: E104T (designed binder)
chain: B1 chain with Q90A, E104T
B37: K31M (designed binder)
chain: B1 chain with K31M, Q90A
B38: S80P (designed binder)
chain: B1 chain with S80P, Q90A
B39: I98V (designed binder)
chain: B1 chain with Q90A, I98V
B40: L99T (designed binder)
chain: B1 chain with Q90A, L99T
B41: K69A (designed binder)
chain: B1 chain with K69A, Q90A
B42: K23P (designed binder)
chain: B1 chain with K23P, Q90A
B43: E62R (designed binder)
chain: B1 chain with E62R, Q90A
B44: L43M (designed binder)
chain: B1 chain with L43M, Q90A
B45: E72L (designed binder)
chain: B1 chain with E72L, Q90A
B46: E7C (designed binder)
chain: B1 chain with E7C, Q90A
B47: Y50D (designed binder)
chain: B1 chain with Y50D, Q90A
B48: K41F (designed binder)
chain: B1 chain with K41F, Q90A
B49: E91S (designed binder)
chain: B1 chain with Q90A, E91S
B50: L99V (designed binder)
chain: B1 chain with Q90A, L99V
B51: K16I (designed binder)
chain: B1 chain with K16I, Q90A
B52: S1Q (designed binder)
chain: B1 chain with S1Q, Q90A
B53: E89V (designed binder)
chain: B1 chain with E89V, Q90A
B54: E26S (designed binder)
chain: B1 chain with E26S, Q90A
B55: K48P (designed binder)
chain: B1 chain with K48P, Q90A

The assay deals with T1, TNFR1 (Homo sapiens, UniProt P19438).
T1 chain: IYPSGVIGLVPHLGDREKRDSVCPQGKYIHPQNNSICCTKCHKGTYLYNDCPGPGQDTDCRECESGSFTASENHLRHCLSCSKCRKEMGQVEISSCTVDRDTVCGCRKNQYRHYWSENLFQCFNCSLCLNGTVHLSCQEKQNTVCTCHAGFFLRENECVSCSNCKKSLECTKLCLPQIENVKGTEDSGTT
The experiment in a line: yeast display SC50.
With B1, the “apparent Kd (screen)” value is 0.49 nM.
Turning to B2, the “apparent Kd (screen)” value stood at 1.05 nM.
Take B3: the “apparent Kd (screen)” value is 0.446 nM.
With B4, the “apparent Kd (screen)” value was found to be 6.43 nM.
The same measure for B5: 0.49 nM; for B6: 0.869 nM.
The same measure for B7: 2.73 nM; for B8: 10.4 nM.
The same measure for B9: 2.73 nM.
On to B10, for which the “apparent Kd (screen)” value is 1.16 nM.
Consider B11, for which the “apparent Kd (screen)” value was found to be 2.73 nM.
Regarding B12, the “apparent Kd (screen)” value worked out at 0.49 nM.
For B13, the “apparent Kd (screen)” value amounted to 0.869 nM.
On to B14, for which the “apparent Kd (screen)” value worked out at 2.73 nM.
In the case of B15, the “apparent Kd (screen)” value worked out at 0.869 nM.
On to B16, for which the “apparent Kd (screen)” value worked out at 13.8 nM.
As for B17, the “apparent Kd (screen)” value is 2.73 nM.
On to B18, for which the “apparent Kd (screen)” value is 0.79 nM.
To B19 belongs 0.718 nM; to B20, 5.84 nM; to B21, 6.43 nM.
To B22 belongs 0.49 nM.
The same measure for B23: 2.73 nM; for B24: 7.78 nM.
With B25, the “apparent Kd (screen)” value was 12.5 nM.
As to B26, the “apparent Kd (screen)” value turned out to be 0.446 nM.
To B27 belongs 0.446 nM.
The same measure for B28: 0.956 nM; for B29: 0.956 nM.
The same measure for B30: 10.4 nM.
As for B31, the “apparent Kd (screen)” value amounted to 1.4 nM.
In the case of B32, the “apparent Kd (screen)” value was determined as 0.49 nM.
To B33 belongs 1.4 nM; to B34, 5.31 nM.
With B35, the “apparent Kd (screen)” value amounted to 11.4 nM.
The same measure for B36: 0.49 nM; for B37: 0.49 nM; for B38: 0.446 nM.
As for B39, the “apparent Kd (screen)” value came out at 11.4 nM.
The same measure for B40: 5.31 nM; for B41: 0.49 nM; for B42: 11.4 nM.
For the molecule B43, the “apparent Kd (screen)” value stood at 0.49 nM.
Regarding B44, the “apparent Kd (screen)” value came to 1.86 nM.
Consider B45, for which the “apparent Kd (screen)” value came out at 0.446 nM.
For the molecule B46, the “apparent Kd (screen)” value came out at 6.43 nM.
With B47, the “apparent Kd (screen)” value was 7.78 nM.
On to B48, for which the “apparent Kd (screen)” value is 0.718 nM.
As to B49, the “apparent Kd (screen)” value was 10.4 nM.
The same measure for B50: 2.25 nM; for B51: 0.446 nM; for B52: 0.539 nM.
The same measure for B53: 2.73 nM.
Turning to B54, the “apparent Kd (screen)” value is 0.539 nM.
With B55, the “apparent Kd (screen)” value amounted to 12.5 nM.
